The record followed here is paper PMC9437053.

The data set addresses ribosomal protein S1 (Escherichia coli, UniProt P0AG67 1-557). As to the kind of experiment: EMSA; natural S1; preferred over SBS-Up; EMSA: 1 uM biotin-RNA, 1x EMSA/Gel-shift binding buffer (Beyotime), 20 C, 30 min; native PAGE in ice-cold 0.5x TBE, 170 V; salt and pH not stated. (In general: Mobility shift assays separate free from complexed probe on a gel.)

B1: SBS-Down-RNA (ssRNA)
RNA: UCGGCUCGUAUAAUGUGUGGAACGCUUUUACUGUUUUAAGGAGAUAUACC
With B1, the binding result is on record as “binds”.
